Test results from patent US20130129730A1 (Amgen, published 2013).
Changes are numbered by the printed parent chain. Each block holds one binder with its values, some of them ahead of it.

Target: T1, human EpCAM (human, UniProt P16422 24-314)
T1 construct: whole, on cells; also called Epithelial cell adhesion molecule; CD326
T1 sequence (looked up): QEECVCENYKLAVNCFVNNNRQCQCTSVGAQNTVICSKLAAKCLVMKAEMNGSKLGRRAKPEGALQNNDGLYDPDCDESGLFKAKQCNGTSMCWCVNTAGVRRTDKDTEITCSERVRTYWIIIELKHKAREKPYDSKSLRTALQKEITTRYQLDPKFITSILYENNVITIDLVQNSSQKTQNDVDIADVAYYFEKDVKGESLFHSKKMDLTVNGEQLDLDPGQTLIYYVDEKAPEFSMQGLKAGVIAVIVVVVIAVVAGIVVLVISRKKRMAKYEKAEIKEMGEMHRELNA
Assay: flow cytometry, scFv periplasmic preparation on human EpCAM transfected CHO cells
Description: Periplasmic preparations of E. coli clones producing the scFv molecules EpCAM 4-7, PM74-G3, PM52-H3, PM52-C3, PM75-A10 and PM91-B6 are used to examine specific binding to human PSMA or human EpCAM transfected cell lines. As negative control untransfected CHO cell are used.
For flow cytometry 2,5×10⁵ cells are incubated with 50 μl of scFv periplasmic preparation. The binding of scFv to the cells is detected with an anti-His antibody (Penta-His Antibody, BSA free, Qiagen GmbH, Hilden, FRG) at 2 μg/ml in 50 μl PBS with 2% FCS. As a second step reagent a R-Phycoerythrin-conjugated affinity purified F(ab′)2 fragment, goat anti-mouse IgG (Fc-gamma fragment specific), diluted 1:100 in 50 μl PBS with 2% FCS (Dianova, Hamburg, FRG) is used. The samples are measured on a FACSscan (BD biosciences, Heidelberg, FRG).
Flow cytometry is performed on a FACS-Calibur apparatus; the CellQuest software is used to acquire and analyze the data (Becton Dickinson biosciences, Heidelberg). FACS staining and measuring of the fluorescence intensity are performed as described in Current Protocols in Immunology (Coligan, Kruisbeek, Margulies, Shevach and Strober, Wiley-Interscience, 2002).

binding result: no binding
B1: scFv PM74-G3 (scFv)
scFv: QVQLVQSGAEVKKPGASVKLSCKASGYTFTYFDINWVRQAPEQGLEWMGGISPGDGNTNYNENFKGRVTMTIDTSSSTAYIELSRLTSDDTAVYYCARDGNFPYYAMDSWGQGTTVTVSSGGGGSGGGGSGGGGSDVVMTQTPLSLPVSLGDQASISCRSSQSLVHSNGNTYLHWYLQKPGQSPKLLIYKVSNRFSGVPDRFSGSGSGTDFTLKISRVEAEDLGVYFCSQSTHVPYTFGGGTKLEIKDYKDDDDK
notes: Tested as periplasmic preparation from E. coli; also called PM74G3-VH-VL; not shown: His6-tag

binding result: no binding
B2: scFv PM52-C3 (scFv)
scFv: QVQLVQSGAEVKKPGASVKLSCKASGYTFTYFDINWVRQTPEQGLEWMGGISPGDGNTNYNENFKGRVTMTRDTSSSTAYMELSRLRSDDTAVYYCARDGNFPYYAMDSWGQGTTVTVSSGGGGSGGGGSGGGGSDVVMTQSPLSLPVTLGEPASISCRSSQSLVYSNGNTYLHWYQQKPGQSPRLLIYKVSNRFSGVPDRFSGSGSGTDFTLKISRVEAEDVGVYFCSQSTHVPYTFGQGTKLEIKDYKDDDDK
notes: Tested as periplasmic preparation from E. coli; also called PM52C3-VH-VL; not shown: His6-tag

binding result: no binding
B3: scFv PM52-H3 (scFv)
scFv: B2 scFv with S76K
notes: Tested as periplasmic preparation from E. coli; also called PM52H3-VH-VL; not shown: His6-tag

binding result: no binding
B4: scFv PM75-A10 (scFv)
scFv: B2 scFv with D108V, S109N
notes: Tested as periplasmic preparation from E. coli; also called PM75A10-VH-VL; not shown: His6-tag

binding result: no binding
B5: scFv PM91-B6 (scFv)
scFv: B2 scFv with M107L, D108T, S109N
notes: Tested as periplasmic preparation from E. coli; also called PM91B6-VH-VL; not shown: His6-tag
